Data on 1 molecule can be found in patent US7026125, “Heterodimers of retinoid X receptors (RXRS) and other steroid hormone receptors” (Ligand Pharmaceuticals).

In one data set the target is T1, RARγ (UniProt P13631 P13631:1-454).
T1 sequence: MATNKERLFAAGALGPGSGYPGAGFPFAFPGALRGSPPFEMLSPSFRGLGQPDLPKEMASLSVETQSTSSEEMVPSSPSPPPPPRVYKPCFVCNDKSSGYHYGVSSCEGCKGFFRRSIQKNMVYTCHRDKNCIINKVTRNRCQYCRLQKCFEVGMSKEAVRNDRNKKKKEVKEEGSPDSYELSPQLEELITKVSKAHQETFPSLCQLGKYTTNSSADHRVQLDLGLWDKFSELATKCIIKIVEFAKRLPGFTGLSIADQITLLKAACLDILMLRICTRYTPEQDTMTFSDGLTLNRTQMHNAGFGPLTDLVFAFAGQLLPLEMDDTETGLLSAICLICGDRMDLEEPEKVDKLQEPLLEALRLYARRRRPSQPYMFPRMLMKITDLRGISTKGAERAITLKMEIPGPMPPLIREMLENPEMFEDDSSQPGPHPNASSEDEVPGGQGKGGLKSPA
Briefly: EMSA; no detectable complex under conditions used. Conditions: label: 32P. The protocol: (§1) (a) In vitro synthesized TRα, TRβ, RARα, RARβ, RARγ and TRα2 receptor proteins were preincubated either with (+) or without (−) equal amount of in vitro synthesized RXRα protein at room temperature for 10 minutes. Following this preincubation, the reaction mixtures were incubated with ^32p-labelled palindromic TRE (for 1 sequence see FIG. 2a) and analyzed by gel retardation assay as described in Experimental Procedures. […] As a control, equal amounts of TRα and RARα proteins were also mixed and incubated with labelled TRE.
(§2) In vitro translated receptor protein (1 to 5 μl depending on the translation efficiency) was incubated with the ^32P-labeled oligonucleotides in a 20-μl reaction mixture containing 10 mM hepes buffer, pH 7.9, 50 mM KCl, 1 mM DTT, 2.5 mM MgCl, 10% glycerol, and 1 μg of poly(dI-dC) at 25° C. for 20 minutes. In general, relative low receptor concentration was used to obtain the clear effect of heterodimer formation. The reaction mixture was then loaded on a 5% nondenaturing ployacrylamide gel containing 0.5×TBE (1×TBE=0.089 M Tris-borate, 0.089 M boric acid, and 0.002 M EDTA). To analyze the effect of RXRα or the nuclear proteins on receptor DNA binding activity, RXRα or the cell extracts were preincubated with receptor protein at room temperature for 10 minutes before performing the DNA binding assay. When antibody was used, 1 μl of the antiserum was incubated with the specific translation products at room temperature for 45 minutes before performing the experiments described above.
(Mobility shift assays separate free from complexed probe on a gel.)

For data set [1], the target named is Flag-RARγ/RXRα heterodimer (UniProt P13631;P19793 P13631:1-454,P19793:1-462). Description: EMSA; inhibited by anti-Flag. Conditions: tags: N-terminal Flag on RARγ; label: 32P. How it is done:
as §2

The next data set concerns the target RARγ/RXRαm4 (UniProt P13631;P19793 P13631:1-454,P19793:61-462, RXRα N-terminal deletion of 61 aa). Description: EMSA; faster migrating than RXRαm3 complex. Conditions: label: 32P. How it is done:
as §2

Another data set has as its target TRα/RXRαm4 (UniProt P10827-2;P19793 P10827-2:1-410,P19793:61-462, RXRα N-terminal deletion of 61 aa). Briefly: EMSA; faster migrating than RXRαm3 complex. Conditions: label: 32P. How it is done: as §2, with “In” for “In vitro translated receptor protein (1 to 5 μl depending on the translation efficiency) was incubated with the ^32P-labeled oligonucleotides in a 20-μl reaction mixture containing 10 mM hepes buffer, pH 7.9, 50 mM KCl, 1 mM DTT, 2.5 mM MgCl, 10% glycerol, and 1 μg of poly(dI-dC) at 25° C. for 20 minutes. In”

In the next data set the target is T2, TRα (UniProt P10827-2 P10827-2:1-410).
T2 sequence: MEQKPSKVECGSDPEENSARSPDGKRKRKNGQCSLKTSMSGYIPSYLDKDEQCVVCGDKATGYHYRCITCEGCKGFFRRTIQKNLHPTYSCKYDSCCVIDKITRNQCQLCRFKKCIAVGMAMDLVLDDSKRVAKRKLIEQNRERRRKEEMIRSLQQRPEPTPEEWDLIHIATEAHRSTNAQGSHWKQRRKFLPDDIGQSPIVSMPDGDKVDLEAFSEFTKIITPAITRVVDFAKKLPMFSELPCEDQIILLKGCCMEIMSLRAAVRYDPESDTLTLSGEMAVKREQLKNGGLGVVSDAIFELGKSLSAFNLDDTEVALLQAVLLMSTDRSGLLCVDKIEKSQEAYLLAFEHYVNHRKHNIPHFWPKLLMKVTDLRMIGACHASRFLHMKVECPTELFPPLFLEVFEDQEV
Briefly: EMSA; monomer complex; 25 C, 50 mM KCl. Particulars: label: 32P. How it is done:
as §1
as §2, with “When antibody was used, 1 μl of the antiserum was incubated with the specific translation products at room temperature for 45 minutes before performing the experiments described above.” left out

The target in another data set is T3, Flag-TRα (UniProt P10827-2 P10827-2:1-410).
T3 sequence: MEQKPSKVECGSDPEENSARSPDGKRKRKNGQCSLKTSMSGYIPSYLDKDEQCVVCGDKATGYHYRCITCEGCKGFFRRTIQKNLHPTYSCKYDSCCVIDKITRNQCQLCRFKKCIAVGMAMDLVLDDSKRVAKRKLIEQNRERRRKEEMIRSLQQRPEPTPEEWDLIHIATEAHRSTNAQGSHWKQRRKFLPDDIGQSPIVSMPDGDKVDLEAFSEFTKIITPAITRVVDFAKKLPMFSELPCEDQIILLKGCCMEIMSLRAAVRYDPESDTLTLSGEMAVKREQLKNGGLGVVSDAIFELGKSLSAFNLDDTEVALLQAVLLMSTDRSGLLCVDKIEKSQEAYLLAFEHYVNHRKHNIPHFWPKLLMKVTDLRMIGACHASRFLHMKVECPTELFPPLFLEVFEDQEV
Description: EMSA; supershifted by anti-Flag. Conditions: tags: N-terminal Flag; label: 32P. How it is done: (b) Effect of anti-Flag-TRα antibody on binding of the slow migrating complex. In vitro synthesized Flag-TRα (F-TRα) protein was incubated with in vitro synthesized RXRα protein in the presence or absence of anti-Flag antibody. The effect of antibody on DNA binding of the slow migrating complex was analyzed as described in FIG. 2a. For control, the receptor mixture was also incubated with preimmune serum (NI). The effect of anti-Flag antibody on DNA binding of Flag-RXRα, RXRα, Flag-TRα, and TRα was also analyzed. For comparison, anti-Flag antibody/Flag-RXRα-TRα interaction was run on the same gel (lanes 7–10).
In vitro translated receptor protein (1 to 5 μl depending on the translation efficiency) was incubated with the ^32P-labeled oligonucleotides in a 20-μl reaction mixture containing 10 mM hepes buffer, pH 7.9, 50 mM KCl, 1 mM DTT, 2.5 mM MgCl, 10% glycerol, and 1 μg of poly(dI-dC) at 25° C. for 20 minutes. In general, relative low receptor concentration was used to obtain the clear effect of heterodimer formation. The reaction mixture was then loaded on a 5% nondenaturing ployacrylamide gel containing 0.5×TBE (1×TBE=0.089 M Tris-borate, 0.089 M boric acid, and 0.002 M EDTA). […]

A further data set deals with TRαm1/RXRα (UniProt P10827-2;P19793 P10827-2:1-402,P19793:1-462, TRα C-terminal deletion of 8 aa). Description: EMSA; interaction unaffected. Particulars: label: 32P. The protocol: as §2
Chain of TRαm1/RXRα (P19793 whole entry, stated change not applied, one chain of several): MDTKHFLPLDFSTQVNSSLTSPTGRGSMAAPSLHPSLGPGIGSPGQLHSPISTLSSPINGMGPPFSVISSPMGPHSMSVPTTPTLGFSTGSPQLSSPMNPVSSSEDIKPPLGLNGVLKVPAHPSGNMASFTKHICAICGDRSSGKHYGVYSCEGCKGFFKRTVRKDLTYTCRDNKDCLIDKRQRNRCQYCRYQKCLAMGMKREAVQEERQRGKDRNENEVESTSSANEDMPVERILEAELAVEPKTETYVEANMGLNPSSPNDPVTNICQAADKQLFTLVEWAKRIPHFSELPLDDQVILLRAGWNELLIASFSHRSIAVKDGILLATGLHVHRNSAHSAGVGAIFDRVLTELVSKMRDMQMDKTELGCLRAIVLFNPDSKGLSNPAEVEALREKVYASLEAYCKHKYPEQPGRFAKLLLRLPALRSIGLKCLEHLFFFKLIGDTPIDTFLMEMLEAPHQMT
The target in data set [2] is Flag-RXRα/TRα heterodimer (UniProt P19793;P10827-2 P19793:1-462,P10827-2:1-410). Briefly: EMSA; strongly reduced by anti-Flag. Particulars: tags: N-terminal Flag on RXRα; label: 32P. The protocol: As a control, receptor mixtures were also incubated with preimmune serum (NI).
Chain of Flag-RXRα/TRα heterodimer (P19793 whole entry, one chain of several): as the sequence (P19793 whole entry, stated change not applied, one chain of several) above
as §2

Chain of Flag-RARγ/RXRα heterodimer (P19793 whole entry, chain 2 of 2, one chain of several): as the sequence (P19793 whole entry, stated change not applied, one chain of several) above
Chain of RARγ/RXRαm4 (P19793 62-462, stated change not applied, chain 2 of 2, one chain of several): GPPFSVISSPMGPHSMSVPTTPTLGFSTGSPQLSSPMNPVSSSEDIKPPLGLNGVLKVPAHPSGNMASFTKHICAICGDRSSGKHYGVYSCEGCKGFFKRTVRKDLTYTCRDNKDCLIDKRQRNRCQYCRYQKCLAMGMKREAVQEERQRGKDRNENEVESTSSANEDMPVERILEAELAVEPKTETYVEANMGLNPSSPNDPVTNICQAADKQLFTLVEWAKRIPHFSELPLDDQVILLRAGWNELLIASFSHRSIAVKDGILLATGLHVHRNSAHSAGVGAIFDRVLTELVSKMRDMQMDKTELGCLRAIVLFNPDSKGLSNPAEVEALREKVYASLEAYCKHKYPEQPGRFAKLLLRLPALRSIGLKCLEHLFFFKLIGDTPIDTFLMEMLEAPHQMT
Chain of TRα/RXRαm4 (P19793 62-462, stated change not applied, one chain of several): as the sequence (P19793 62-462, stated change not applied, chain 2 of 2, one chain of several) above

B1: palindromic TRE (dsDNA)
DNA 1: GATCTCAGGTCATGACCTGAGATC
DNA 2: GATCTCAGGTCATGACCTGAGATC
As for B1, the binding result with RARγ is recorded as “no binding”; in data set [1] it was “binds”; with RARγ/RXRαm4 it was “binds”; with TRα/RXRαm4, “binds”; in the data set with TRα it was “binds”; with Flag-TRα, “binds”. The binding result (with TRαm1/RXRα; in data set [2]) was “binds” throughout.
